Results taken from the RNAGym collection of RNA variant scans (doi:10.7554/elife.80360).

B1: Hairpin Ribozyme (parent)
chain: GUCCUCUUUCACGUGCGCGUGAAAGAGAGAAGUGAACCAGAGAAACACACGUUGUGGUAUAUUACCUGGUA

Variants of: B1
Assay: self-cleavage, relative activity (ratio to wild type); higher = more cleavage; co-transcriptional
In the case of CUCCUCUUUCACGUGCGCGUGAAAGAGAGAAGUGAACUAGAGAAACACACGUUGUGGUAUAUUACCUGGUA [G1C C38U], the self-cleavage is reported as 0.198. Work on GUCCUCUUUCACGUCCGCGUGAAAGAGAGAAGUGAACCAGAGAAACACACGUUGAGGUAUAUUACCUGGUA [G15C U55A] yielded a self-cleavage of 0.279. In the case of GUCGUCUUUCACGUGCGCGUGAAAGAGAGAAGUGAACCAGAGAAACACACGUUAUGGUAUAUUACCUGGUA [C4G G54A], the self-cleavage is reported as 0.144. Variant GUCCUCUUUCACGUGCGCGUGAAACAGAGAAGUGAACCAGAGAAACACGCGUUGUGGUAUAUUACCUGGUA [G25C A49G] has a self-cleavage of 0.255. Variant GUCCUCUUUCACGUGCGCGUGAAAGAGAGAAGUGAACCAGUGAAACACUCGUUGUGGUAUAUUACCUGGUA [A41U A49U] has a self-cleavage of 0.725. Variant GUCCUCUUUCACAUGCGCGUGAAAGAGAGAAGUAAACCAGAGAAACACACGUUGUGGUAUAUUACCUGGUA [G13A G34A] has a self-cleavage of 1.19. Variant GUCCUCUUUCACGUGCGCGUGAGAGAGAGAAGUGAACCAGAGAAACACACGUUGUGGUAUAUUACCCGGUA [A23G U67C] has a self-cleavage of 0.218. Variant CUCCUCUUUCACCUGCGCGUGAAAGAGAGAAGUGAACCAGAGAAACACACGUUGUGGUAUAUUACCUGGUA [G1C G13C] has a self-cleavage of 0.179. In the case of GUCGUCUUUCACGUGCGCGUGAAAGAGAGAAGUGAACCAGAGAAACACACGUUGUGGUAUAUUGCCUGGUA [C4G A64G], the self-cleavage is reported as 0.124. GUCCUCUUUCACGUGCGCGUGAAAGAUAGAAGUGAACCAGAGAAACACACGUUGGGGUAUAUUACCUGGUA [G27U U55G] showed a self-cleavage of 0.224. With GUCCUCUUUCUCGUGCGCGUGAAAUAGAGAAGUGAACCAGAGAAACACACGUUGUGGUAUAUUACCUGGUA [A11U G25U] the self-cleavage was 0.568. GUCCUCUUUCACGUGCGCGUGAAAGAGAGAAGUGAACCAGAGAGACACACGUUGUGGUAUAUUACCUCGUA [A44G G68C] showed a self-cleavage of 0.244. With GUCCUCUUUCACGUGCGCGUGAAAGAGAGAAGUGAACGAGAGAAACACACGUUGUGGUAUAUCACCUGGUA [C38G U63C] the self-cleavage was 0.178. In the case of GUCCUCUUUCACGUGCGCGUGUAAGAGAGAAGUGAACCAGCGAAACACACGUUGUGGUAUAUUACCUGGUA [A22U A41C], the self-cleavage is reported as 0.87. In the case of GUCCUCUUUCACGUGCGCGUGAAAGAGAGAAGUGAACCAGAGAUACACACGUUGUGGUAUAUUAUCUGGUA [A44U C65U], the self-cleavage is reported as 0.14. Work on GUCCUCUUUCACGUGCGCGUGAAAGAGAGAAGUGAACCAGAGAAACACACGUUGUGGUAUAUUAUGUGGUA [C65U C66G] yielded a self-cleavage of 0.248. Variant GUCCUCUUUCACGUGCCCGUGAAAGAGAGAAGUGAACCAGAGAAACACAAGUUGUGGUAUAUUACCUGGUA [G17C C50A] has a self-cleavage of 0.248. GUCCUCUUUCACGUGCGCGUGAAAGAGAGAAGUGAACUAGAGAAACACGCGUUGUGGUAUAUUACCUGGUA [C38U A49G] showed a self-cleavage of 0.343. Variant GUCCUCUUCCACGUGCGCGUGAAAGAGAGAAGUGAACCAGAGAAACACAGGUUGUGGUAUAUUACCUGGUA [U9C C50G] has a self-cleavage of 0.258. For GUCCUCUUUCACGUCCGCGUGAAAGAGAGAAGUGAACCAGAGAAACACUCGUUGUGGUAUAUUACCUGGUA [G15C A49U], the self-cleavage was 0.102. Work on GUCCUCUUUCACGUUCGCGUGAAUGAGAGAAGUGAACCAGAGAAACACACGUUGUGGUAUAUUACCUGGUA [G15U A24U] yielded a self-cleavage of 0.957. GUCCUCUUUCACGUGCGCGUGAAGGAGAGAAGUGAACCAGAGAAAUACACGUUGUGGUAUAUUACCUGGUA [A24G C46U] showed a self-cleavage of 0.0984. With GUCCUCUUUCACGUGCGCGUCAAAGAGAGAAGUGAACCAGAGAAACAAACGUUGUGGUAUAUUACCUGGUA [G21C C48A] the self-cleavage was 0.0883. With GUCCUCUUUUACGUGCGCGUGAAAAAGAGAAGUGAACCAGAGAAACACACGUUGUGGUAUAUUACCUGGUA [C10U G25A] the self-cleavage was 0.429. With GUCCUCUUUCACAUGCGCGUGAAAGUGAGAAGUGAACCAGAGAAACACACGUUGUGGUAUAUUACCUGGUA [G13A A26U] the self-cleavage was 0.529. Work on GUCCUCUUUCACGUGCGCGUGAAAGAGAGAAGUGAACCAGAGAAACACACGUUGUGGUAUAUUACCUGUUC [G69U A71C] yielded a self-cleavage of 1.38. With GUCCUCUUACACGUGCGCGUGAAAGAGAGAAGUGAACCAGAGAAACACACGUUGUGGUAUAGUACCUGGUA [U9A U62G] the self-cleavage was 0.122. Work on GUCCUCUUUCACGUGCGCGUGAAGGAGAGAAGUGAACCAGAGAAACACACGUUGAGGUAUAUUACCUGGUA [A24G U55A] yielded a self-cleavage of 0.272. With GUCCUCUUUCACGUGCGCGUGAAAGAGAGAAGUGCACCCGAGAAACACACGUUGUGGUAUAUUACCUGGUA [A35C A39C] the self-cleavage was 0.226. For GUCCUCUUUCACGUGCGCGUGAAAGAGAGAAGUGAACUAGAGAAACACACGUUGUGGUAUCUUACCUGGUA [C38U A61C], the self-cleavage was 0.197. GUCCUCUUUCACGUGCGCGUGAAAGAGAGAAGUGAACCAGAGAAUCACAUGUUGUGGUAUAUUACCUGGUA [A45U C50U] gave a self-cleavage of 0.123. Work on GUCCUCUUUCACGUGCGCGUGAAAGAGAGAAGUGCACCAGAGAAACACACGUUGUGGUAUAUAACCUGGUA [A35C U63A] yielded a self-cleavage of 0.13. GUCCUCUUUCACGUGCGCGUGAAAAAGAGAAGUUAACCAGAGAAACACACGUUGUGGUAUAUUACCUGGUA [G25A G34U] showed a self-cleavage of 1.11. GUCCUCUUUCACGUGCGCGUGCAAGACAGAAGUGAACCAGAGAAACACACGUUGUGGUAUAUUACCUGGUA [A22C G27C] showed a self-cleavage of 0.123. GUCCUCUUUCAUGUGGGCGUGAAAGAGAGAAGUGAACCAGAGAAACACACGUUGUGGUAUAUUACCUGGUA [C12U C16G] showed a self-cleavage of 0.78. With GUCCUCUUUCACGUGCGCGUGAAAGAGAGAAUUGAGCCAGAGAAACACACGUUGUGGUAUAUUACCUGGUA [G32U A36G] the self-cleavage was 0.0896. GUCCUAUUUCACGUGCGCGUGAAAGAGAGAAGUGAACCAGAGAAACACACGUUGUGCUAUAUUACCUGGUA [C6A G57C] gave a self-cleavage of 0.0868. In the case of GUCCUCCUUCACGUGCGCGUGGAAGAGAGAAGUGAACCAGAGAAACACACGUUGUGGUAUAUUACCUGGUA [U7C A22G], the self-cleavage is reported as 0.565.
